Test results taken from patent USRE49099 (Bayer, dated 2022).
Substitutions are numbered along the chain they refer to. Blank lines part the entries; values can stand above or below the binder they belong to.

What was measured:
cyno activated protein C [1] = target: T1, cyno activated protein C (cyno (monkey)); assay: ELISA, coated antigen
T1 construct: also called cyno aPC; cyno APC

[2] = target: T2, human activated protein C (human, UniProt P04070 43-197; P04070 212-461); assay: ELISA, coated antigen
T2 construct: also called human aPC; human APC

human Protein C = target: T3, human Protein C (human, UniProt P04070 43-461); assay: ELISA, coated antigen
T3 construct: Zymogen used as negative control in the ELISA; also called human PC; hPC

cyno activated protein C [3] = target: T1, cyno activated protein C; assay: SPR (Biacore), 1:1 binding model
[4] = target: T2, human activated protein C; assay: SPR (Biacore), 1:1 binding model
[5] = target: T2, human activated protein C; assay: SPR (Biacore)

- EC50 (cyno activated protein C [1]): 1.23 nM
- EC50 [2]: 0.233 nM
- binding result (human Protein C): no binding (tested: 20 nM)
- Kd (cyno activated protein C [3]): 15.8 nM
- koff (cyno activated protein C [3]): 0.00373 s⁻¹
- kon (cyno activated protein C [3]): 236000 M⁻¹ s⁻¹
- Kd [4]: 4.52 nM
- koff [4]: 0.00643 s⁻¹
- kon [4]: 1.42e+06 M⁻¹ s⁻¹
B2: Hu1573-16 (antibody, V domains shown)
VH: EVQLVESGGGLVQPGGSLRLSCAASGFTFSNYYLNWVRQAPGKGLEWVADIRLKSNNYEKHYAESVKGRFTISRDDSKSSVYLQMNSLKTEDTAVYYCIREGDYFDYWGQGTTVTVSS
VL: DIVLTQTPLSLSVTPGQPASISCRASESVDSFGATFMHWYLQKPGQPPQLLIYLASNLESGVPDRFSGSGSGTDFTLKISRVEAEDVGVYYCQQNNEDPYTFGQGTKLEIKR
notes: Humanized IgG, human gamma 1 / kappa constant regions by vectors pCP-hCg1 and pCP-hck; also called H1573VH.1F + H1573Vk.2A

- EC50 (cyno activated protein C [1]): 0.984 nM
- EC50 [2]: 0.225 nM
- binding result (human Protein C): no binding (tested: 20 nM)
- Kd (cyno activated protein C [3]): 17.6 nM
- koff (cyno activated protein C [3]): 0.00524 s⁻¹
- kon (cyno activated protein C [3]): 299000 M⁻¹ s⁻¹
- Kd [4]: 6.13 nM
- koff [4]: 0.00856 s⁻¹
- kon [4]: 1.4e+06 M⁻¹ s⁻¹
B6: Hu1573-14 (antibody, V domains shown)
VH: B2 VH with S79N
VL: B2 VL with L4M, G72R
notes: Humanized IgG, human gamma 1 / kappa constant regions by vectors pCP-hCg1 and pCP-hck; also called H1573VH.1E + H1573Vk.2B

- EC50 (cyno activated protein C [1]): 1.21 nM
- EC50 [2]: 0.627 nM
- binding result (human Protein C): no binding (tested: 20 nM)
- Kd (cyno activated protein C [3]): 15.6 nM
- koff (cyno activated protein C [3]): 0.0042 s⁻¹
- kon (cyno activated protein C [3]): 269000 M⁻¹ s⁻¹
- Kd [4]: 5.75 nM
- koff [4]: 0.00833 s⁻¹
- kon [4]: 1.45e+06 M⁻¹ s⁻¹
B7: Hu1573-17 (antibody, V domains shown)
VH: B2 VH
VL: B2 VL with L4M, G72R
notes: Humanized IgG, human gamma 1 / kappa constant regions by vectors pCP-hCg1 and pCP-hck; also called H1573VH.1F + H1573Vk.2B

Second part, the binder before the results:

B1: Hu1573-12 (antibody, V domains shown)
VH: B2 VH with S79N
VL: B2 VL with L4M
notes: Humanized IgG, human gamma 1 / kappa constant regions by vectors pCP-hCg1 and pCP-hck; also called H1573VH.1E + H1573Vk.2
- EC50 (cyno activated protein C [1]): 0.642 nM
- EC50 [2]: 0.339 nM
- binding result (human Protein C): no binding (tested: 20 nM)
- Kd (cyno activated protein C [3]): 16.1 nM
- koff (cyno activated protein C [3]): 0.0054 s⁻¹
- kon (cyno activated protein C [3]): 337000 M⁻¹ s⁻¹
- Kd [4]: 6.03 nM
- koff [4]: 0.00844 s⁻¹
- kon [4]: 1.4e+06 M⁻¹ s⁻¹

B3: Hu1573-11 (antibody, V domains shown)
VH: B2 VH with A49G, V81L
VL: B2 VL with L4M, G72R
notes: Humanized IgG, human gamma 1 / kappa constant regions by vectors pCP-hCg1 and pCP-hck; also called H1573VH.1D + H1573Vk.2B
- EC50 (cyno activated protein C [1]): 1.47 nM
- EC50 [2]: 0.687 nM
- binding result (human Protein C): no binding (tested: 20 nM)
- Kd (cyno activated protein C [3]): 15.6 nM
- koff (cyno activated protein C [3]): 0.0042 s⁻¹
- kon (cyno activated protein C [3]): 269000 M⁻¹ s⁻¹
- Kd [4]: 6.49 nM
- koff [4]: 0.00896 s⁻¹
- kon [4]: 1.38e+06 M⁻¹ s⁻¹

B4: Hu1573-4 (antibody, V domains shown)
VH: B2 VH with A49G, S79N
VL: B2 VL
notes: Humanized IgG, human gamma 1 / kappa constant regions by vectors pCP-hCg1 and pCP-hck; also called H1573VH.1B + H1573Vk.2A
- EC50 (cyno activated protein C [1]): 0.904 nM
- EC50 [2]: 0.583 nM
- binding result (human Protein C): no binding (tested: 20 nM)
- Kd (cyno activated protein C [3]): 14.2 nM
- koff (cyno activated protein C [3]): 0.0105 s⁻¹
- kon (cyno activated protein C [3]): 743000 M⁻¹ s⁻¹
- Kd [4]: 5.1 nM
- koff [4]: 0.00772 s⁻¹
- kon [4]: 1.52e+06 M⁻¹ s⁻¹

B5: Hu1573-7 (antibody, V domains shown)
VH: B2 VH with S79N, V81L
VL: B2 VL
notes: Humanized IgG, human gamma 1 / kappa constant regions by vectors pCP-hCg1 and pCP-hck; also called H1573VH.1C + H1573Vk.2A
- EC50 (cyno activated protein C [1]): 0.853 nM
- EC50 [2]: 0.445 nM
- binding result (human Protein C): no binding (tested: 20 nM)
- Kd (cyno activated protein C [3]): 18.5 nM
- koff (cyno activated protein C [3]): 0.00471 s⁻¹
- kon (cyno activated protein C [3]): 255000 M⁻¹ s⁻¹
- Kd [4]: 6.33 nM
- koff [4]: 0.00857 s⁻¹
- kon [4]: 1.36e+06 M⁻¹ s⁻¹

B8: Hu1573-3 (antibody, V domains shown)
VH: B2 VH with A49G, S79N
VL: B2 VL with L4M
notes: Humanized IgG, human gamma 1 / kappa constant regions by vectors pCP-hCg1 and pCP-hck; also called H1573VH.1B + H1573Vk.2
- EC50 (cyno activated protein C [1]): 0.872 nM
- EC50 [2]: 0.592 nM
- binding result (human Protein C): no binding (tested: 20 nM)
- Kd (cyno activated protein C [3]): 14.2 nM
- koff (cyno activated protein C [3]): 0.0105 s⁻¹
- kon (cyno activated protein C [3]): 743000 M⁻¹ s⁻¹
- Kd [4]: 5.7 nM
- koff [4]: 0.00818 s⁻¹
- kon [4]: 1.44e+06 M⁻¹ s⁻¹

B9: Hu1573-2 (antibody, V domains shown)
VH: B2 VH with A49G, S79N, V81L
VL: B2 VL with G72R
notes: Humanized IgG, human gamma 1 / kappa constant regions by vectors pCP-hCg1 and pCP-hck; also called H1573VH.1A + H1573Vk.2C
- EC50 (cyno activated protein C [1]): 0.774 nM
- EC50 [2]: 0.265 nM
- binding result (human Protein C): no binding (tested: 20 nM)
- Kd (cyno activated protein C [3]): 16.4 nM
- koff (cyno activated protein C [3]): 0.00384 s⁻¹
- kon (cyno activated protein C [3]): 235000 M⁻¹ s⁻¹
- Kd [4]: 4.61 nM
- koff [4]: 0.00624 s⁻¹
- kon [4]: 1.35e+06 M⁻¹ s⁻¹
- Kd [5]: < 5 nM
